# Publication PMC6719084 (2019)
# T1: BCL-WΔC
# T1 chain: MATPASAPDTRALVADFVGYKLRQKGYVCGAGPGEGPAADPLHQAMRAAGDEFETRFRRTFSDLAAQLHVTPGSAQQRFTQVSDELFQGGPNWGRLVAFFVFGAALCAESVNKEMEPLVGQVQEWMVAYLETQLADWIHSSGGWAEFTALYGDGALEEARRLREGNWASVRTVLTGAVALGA
# T2: MCL-1ΔNΔC
# T2 chain: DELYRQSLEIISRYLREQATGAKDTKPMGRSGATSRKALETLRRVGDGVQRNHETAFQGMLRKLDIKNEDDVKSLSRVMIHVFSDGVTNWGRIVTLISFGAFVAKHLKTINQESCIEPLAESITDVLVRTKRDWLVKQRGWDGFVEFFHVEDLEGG
# Experiments:
# Experiment in all cases: FP
# [1] = biological target: BCL-2ΔC
# [2] = biological target: T1, BCL-WΔC
# [3] = biological target: T2, MCL-1ΔNΔC
# [4] = biological target: BCL-XLΔC
binder,measurement,setting,value
IWIAQELRRIGDEFNAYYARRVXKKKKK (fluorescein isothiocyanate (FITC) on the N-terminus; citrulline after the linker's valine (written X in the letters); DSPE-PEG(2000)-succinyl lipid tail on the side chain of the C-terminal lysine),Kd,[1],187 nM
same,Kd,[2],247 nM
same,Kd,[3],453 nM
same,Kd,[4],165 nM
